In patent US11078246B2, “Peptides binding to Bfl-1” (Dana-Farber Cancer Institute, Inc., priority 2015, dated 2021):
Residue numbers refer to the chain shown, from its start. Positions of bridges follow the written chain, without caps; N, C: chain ends. Non-standard residues stand in square brackets, D forms with d. No end group written: not given here. S5 = C=CCCC[C@](C)(N)C(=O)O

Key:
BCL-XLΔC = biological target: T1, BCL-XLΔC (Homo sapiens, UniProt Q07817); test: In vitro covalent conjugation assay (oxidizing conditions); assay type: binding
T1 construct: MCL-1ΔNΔC (aa 170-327) and BCL-XLΔC (aa 1-212) constructs were cloned into pGEX-4T-1; GST (N, cleaved yes); made in house; host or cells: Escherichia coli BL21(DE3)
T1 sequence (Q07817 1-212, stated change not applied): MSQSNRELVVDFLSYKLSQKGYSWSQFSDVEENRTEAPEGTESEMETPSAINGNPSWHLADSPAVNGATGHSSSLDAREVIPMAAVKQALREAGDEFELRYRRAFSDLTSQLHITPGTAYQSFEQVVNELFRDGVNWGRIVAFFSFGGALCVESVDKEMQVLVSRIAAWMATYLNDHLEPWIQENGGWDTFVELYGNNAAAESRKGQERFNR

BFL-1ΔC [1] = biological target: T2, BFL-1ΔC (Homo sapiens, UniProt Q16548, C19S/C4S/C55S); test: In vitro covalent conjugation assay (DTT reduction, GSSG oxidation); assay type: binding; details: Coomassie, FITC scan
T2 construct: cDNA encoding BFL-1ΔC (aa 1-153) was cloned into the pET19b expression vector; made in house; host or cells: Escherichia coli BL21(DE3) LOBSTR
T2 sequence (Q16548 1-153 C4S/C19S/C55S): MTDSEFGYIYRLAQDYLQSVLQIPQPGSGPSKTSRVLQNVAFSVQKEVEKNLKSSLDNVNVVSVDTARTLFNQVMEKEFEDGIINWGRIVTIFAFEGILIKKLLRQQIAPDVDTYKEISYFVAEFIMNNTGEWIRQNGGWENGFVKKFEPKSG
Protocol: (§1) Biolayer Interferometry: Binding analyses of NOXA peptide interactions with BFL-1ΔC were performed on an Octet RED384 system (Fortebio, Menlo Park, Calif.) at 30° C. Super streptavidin (SSA) tips were prewetted in 1× kinetics buffer (PBS, pH 7.4, 0.01% BSA, 0.002% Tween-20) and then conjugated to NOXA SAHBs bearing an N-terminal biotin-PEG linker (10 μg/mL). Excess streptavidin was quenched by incubation with 2 μg/mL biocytin. The tips were then washed with kinetics buffer and soaked in a serial dilution of BFL-IAC for 10 min to measure association rate, followed by a 15 min incubation in kinetics buffer to measure dissociation rate. Dissociation constants were calculated using Octet Data Analysis version 9.0. […] After this incubation in a reducing environment, the mixture was diluted 5-fold into 50 mM Tris pH 8.0, 100 mM NaCl, 12 mM GSSG and incubated in the dark for an additional 30 min at RT. […] The gel was rinsed with water, subjected to FITC scan (Typhoon FLA 9500, GE Healthcare) and then Coomassie staining.

BFL-1ΔC [2] = biological target: T3, BFL-1ΔC (Homo sapiens, UniProt Q16548); test: as above; assay type: binding; details: DTT 10 mM then GSSG 12 mM; Coomassie, FITC scan
T3 construct: cDNA encoding BFL-1ΔC (aa 1-153) was cloned into the pET19b expression vector; made in house; host or cells: Escherichia coli BL21(DE3) LOBSTR
T3 sequence (Q16548 1-153): T2 sequence (Q16548 1-153 C4S/C19S/C55S) with S4C, S19C, S55C
Protocol: as §1

BFL-1ΔC [3] = biological target: T4, BFL-1ΔC (Homo sapiens, UniProt Q16548, C19S/C4S); test: as above; assay type: binding; details: Coomassie, FITC scan
T4 construct: cDNA encoding BFL-1ΔC (aa 1-153) was cloned into the pET19b expression vector; made in house; host or cells: Escherichia coli BL21(DE3) LOBSTR
T4 sequence (Q16548 1-153 C4S/C19S): T2 sequence (Q16548 1-153 C4S/C19S/C55S) with S55C
Protocol: as §1

Bfl-1 [4] = biological target: T5, Bfl-1 (Homo sapiens, UniProt Q16548); test: Liposomal release assay (Bfl-1 inhibition of BAX activation); assay type: biochemical
T5 sequence (Q16548 1-175): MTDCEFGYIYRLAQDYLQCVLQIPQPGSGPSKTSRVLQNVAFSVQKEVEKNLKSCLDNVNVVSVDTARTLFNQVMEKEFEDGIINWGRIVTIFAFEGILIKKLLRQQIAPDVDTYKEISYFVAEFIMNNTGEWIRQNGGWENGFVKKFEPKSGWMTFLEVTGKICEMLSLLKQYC
Protocol: Fluorescence polarization assay: The solution-state equilibrium binding assay was used to determine binding affinities of the stapled peptides to the anti-apoptotic proteins. Proteins were serially diluted from 1 μM, then combined with FITC-labeled SAHB and polarization measured at 5 min on a microplate reader. We then calculated dissociation constants (KD) by nonlinear regression analysis of dose-response curves. Bfl-1:NOXA conjugation assay: The conjugation assay was developed to test for disulfide bond formation in a non-reducing environment, 3:1 FITC-stapled peptide:protein molar ratio was combined in the presence of DTT, then diluted and incubated with 1.2 molar excess GSSG. Samples were then run on non-reducing SDS-PAGE, scanned for fluorescence, then stained with Coomassie. […] ANTS release and dequenching due to DPX dissociation (F) was measured over a period of 120 min with an M1000 Infinite plate reader (Tecan) with excitation and emission wavelengths of 355 nm and 520 nm, respectively. Plates were read following liposome lysis with 1% Triton X-100 to determine maximal release (F100). Percent ANTS/DPX release was calculated as […]. […]

Bfl-1 [5] = biological target: T5, Bfl-1; test: Competitive binding assay after pre-forming the Bfl-1:NOXA disulfide bond; details: Bfl-1:NOXA disulfide bond pre-formed
Protocol: The functional impact of the Bfl-1:NOXA disulfide bond formation was evaluated using competitive binding assays and liposomal release assays.

GST-MCL-1ΔNΔC = biological target: T6, GST-MCL-1ΔNΔC (Homo sapiens, UniProt Q07820); test: Streptavidin pull-down from anti-apoptotic protein mixture; assay type: binding; details: 1:1:1:1 mixture, 1 μM each, biotinylated SAHB
T6 construct: MCL-1ΔNΔC (aa 170-327) and BCL-XLΔC (aa 1-212) constructs were cloned into pGEX-4T-1; made in house; host or cells: Escherichia coli BL21(DE3)
T6 sequence (Q07820 170-327, stated change not applied): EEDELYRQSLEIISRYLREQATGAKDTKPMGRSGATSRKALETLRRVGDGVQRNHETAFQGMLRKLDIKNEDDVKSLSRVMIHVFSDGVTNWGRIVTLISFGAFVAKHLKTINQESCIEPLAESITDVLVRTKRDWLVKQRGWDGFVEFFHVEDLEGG
Protocol: Streptavidin Pull-down: Recombinant His-BFL-1ΔC, BCL-XLΔC (tagless) and GST-MCL-1ΔNΔC (1 μM each) were combined and reduced with 3 mM DTT in PBS for 30 min at RT, and then incubated with 1 μM biotinylated SAHBA, SAHBA-3 or vehicle for 4 h at RT. The mixtures were then combined with PBS-washed high-capacity SA agarose (Thermo Fisher Pierce) and incubated with rotation for 2 h at RT. The beads were centrifuged at 3000 rpm, washed twice with NP-40 lysis buffer (1% NP40, 50 mM Tris pH 8.0, 100 mM NaCl, 2.5 mM MgCl2), once with PBS, and then bound protein eluted by boiling in 10% SDS containing 10 mg/mL biotin. Inputs (10%) and eluates were electrophoresed on a 12% Bis-Tris gel and then subjected to silver stain and imaging.

MCL-1ΔNΔC = biological target: T7, MCL-1ΔNΔC (Homo sapiens, UniProt Q07820); test: In vitro covalent conjugation assay (oxidizing conditions); assay type: binding
T7 construct: MCL-1ΔNΔC (aa 170-327) and BCL-XLΔC (aa 1-212) constructs were cloned into pGEX-4T-1; GST (N, cleaved yes); made in house; host or cells: Escherichia coli BL21(DE3)
T7 sequence (Q07820 170-327, stated change not applied): as above

Bfl-1 [6] = biological target: T5, Bfl-1; test: Bfl-1:NOXA conjugation assay (disulfide bond, GSSG oxidation); assay type: binding; details: non-reducing SDS-PAGE
Protocol: Next, the impact of the Cys25 in NOXA was investigated. […] The distance between the sulfurs of the cysteine residues is 3.5 A according to the previously determined crystal structure of the bound proteins (PDB ID 3MQP). […] To examine the impact of Cys25 in NOXA on target interaction, we examined the binding of WT NOXA SAHB and NOXA C25S SAHB to Bfl-1 and to a variety of Bfl-1 cysteine mutants. In vitro conjugation assays were performed in order to verify the formation of the disulfide bond. Global reduction of the protein and the NOXA peptides, followed by the introduction of an oxidant such as GSSG led to production of a disulfide bond, shown as a 3 kDa shift on non-reducing SDS-PAGE (FIG. 4A). […] (FIG. 4A).
Fluorescence polarization assay: The solution-state equilibrium binding assay was used to determine binding affinities of the stapled peptides to the anti-apoptotic proteins. Proteins were serially diluted from 1 μM, then combined with FITC-labeled SAHB and polarization measured at 5 min on a microplate reader. We then calculated dissociation constants (KD) by nonlinear regression analysis of dose-response curves. […] Samples were then run on non-reducing SDS-PAGE, scanned for fluorescence, then stained with Coomassie. […] Plates were read following liposome lysis with 1% Triton X-100 to determine maximal release (F100). Percent ANTS/DPX release was calculated as […]. […]

Bfl-1 [7] = biological target: T5, Bfl-1; test: Bfl-1:Warhead SAHB conjugation assay; assay type: binding; details: conjugation with Bfl-1
Protocol: Proteins were serially diluted from 1 μM, then combined with FITC-labeled SAHB and polarization measured at 5 min on a microplate reader. We then calculated dissociation constants (KD) by nonlinear regression analysis of dose-response curves. […] Samples were then combined with loading dye, run on a 12% Bis-Tris SDS-PAGE, and stained with Coomassie. The same setup was used for all antiapoptotic proteins tested.

NOXA SAHBA: stapled NOXA BH3 (aa 19-43), i, i+4 hydrocarbon staple replacing R31 and K35, native C25; SEQ ID NO:9 (AELEVECATQLR[S5]FGD[S5]LNFRQKLL; staple 13-17)
molecular weight shift or FITC labeling of BCL-XLΔC (BCL-XLΔC): no molecular weight shift or FITC labeling
disulfide adduct with BFL-1ΔC C4S/C19S/C55S (lacks C55) (BFL-1ΔC [1]): no adduct
molecular weight shift (disulfide adduct) of wild-type BFL-1ΔC (BFL-1ΔC [2]): shift in the molecular weight
disulfide adduct with BFL-1ΔC C4S/C19S (only C55 present) (BFL-1ΔC [3]): molecular weight shift
anti-apoptotic effects of Bfl-1 on BAX (Bfl-1 [4]; Bfl-1:NOXA disulfide bond formed prior to assay): almost completely abrogates the effects of Bfl-1
anti-apoptotic effects of Bfl-1 on BAX (Bfl-1 [4]; peptide added concurrently with Bfl-1): somewhat inhibited
availability of the Bfl-1 binding pocket to another FITC BH3 domain (Bfl-1 [5]): significantly decreased the availability of the Bfl-1 binding pocket
MCL-1ΔNΔC engagement in SA pull-down (GST-MCL-1ΔNΔC): prominent non-covalent capture
molecular weight shift or FITC labeling of MCL-1ΔNΔC (MCL-1ΔNΔC): no molecular weight shift or FITC labeling
covalent (disulfide) bond formation with Bfl-1, BCL-XL and MCL-1 (Bfl-1 [6]): only Bfl-1 forms a covalent bond

NOXA SAHBA C25S: stapled NOXA BH3 peptide with C25S substitution; SEQ ID NO:13 (AELEVESATQLR[S5]FGD[S5]LNFRQKLL; staple 13-17)
molecular weight shift (disulfide adduct) of wild-type BFL-1ΔC (BFL-1ΔC [2]): not
availability of the Bfl-1 binding pocket to another FITC BH3 domain (Bfl-1 [5]): abrogated these inhibitory effects

O=C(O)[C@@H]1CCCCN1 [L-homoproline]
covalent binding efficiency (comparative) (Bfl-1 [7]): less efficient

O=C(O)[C@H]1CCCCN1 [D-homoproline]
covalent binding efficiency (comparative) (Bfl-1 [7]): less efficient

CN(C)C/C=C/C(=O)O [trans-4-dimethylaminocrotonic acid]
covalent binding efficiency (comparative) (Bfl-1 [7]): less efficient
